T1: Biotinylated Prn-E (pertactin residues 38-640 with N-terminal biotinylation sequence) (B. bronchiseptica, UniProt Q03035 38-640, biotin (in vivo biotinylation of the N-terminal biotinylation sequence))
T1 construct: Pertactin of B. bronchiseptica, ectodomain residues 38-640; also called immobilized pertactin
T1 sequence: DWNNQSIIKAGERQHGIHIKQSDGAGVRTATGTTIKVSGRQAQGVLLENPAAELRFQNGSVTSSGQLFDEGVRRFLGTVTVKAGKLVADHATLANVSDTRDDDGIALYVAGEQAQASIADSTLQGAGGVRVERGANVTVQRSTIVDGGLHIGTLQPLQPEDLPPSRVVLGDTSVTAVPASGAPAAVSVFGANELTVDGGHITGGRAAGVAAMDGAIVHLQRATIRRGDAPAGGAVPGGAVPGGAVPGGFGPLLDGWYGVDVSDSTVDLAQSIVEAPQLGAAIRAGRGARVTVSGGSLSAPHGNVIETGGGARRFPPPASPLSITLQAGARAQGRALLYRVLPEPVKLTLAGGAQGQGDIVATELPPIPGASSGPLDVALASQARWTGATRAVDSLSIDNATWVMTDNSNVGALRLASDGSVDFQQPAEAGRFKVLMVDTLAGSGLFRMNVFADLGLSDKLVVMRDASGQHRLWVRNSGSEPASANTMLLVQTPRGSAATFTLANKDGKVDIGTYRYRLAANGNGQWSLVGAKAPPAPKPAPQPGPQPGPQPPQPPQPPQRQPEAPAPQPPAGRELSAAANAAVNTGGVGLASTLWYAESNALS

T2: His-tagged ectodomain of B. bronchiseptica pertactin (Prn-E; residues 38-640) (B. bronchiseptica, UniProt Q03035 38-640)
T2 construct: Pertactin of B. bronchiseptica, 60 kDa ectodomain, residues 38-640 of the 93 kDa precursor; the loop deletion mutants carry an N-terminal His tag from pET28b; also called wild-type Prn-E; His-tagged Prn-E
T2 sequence: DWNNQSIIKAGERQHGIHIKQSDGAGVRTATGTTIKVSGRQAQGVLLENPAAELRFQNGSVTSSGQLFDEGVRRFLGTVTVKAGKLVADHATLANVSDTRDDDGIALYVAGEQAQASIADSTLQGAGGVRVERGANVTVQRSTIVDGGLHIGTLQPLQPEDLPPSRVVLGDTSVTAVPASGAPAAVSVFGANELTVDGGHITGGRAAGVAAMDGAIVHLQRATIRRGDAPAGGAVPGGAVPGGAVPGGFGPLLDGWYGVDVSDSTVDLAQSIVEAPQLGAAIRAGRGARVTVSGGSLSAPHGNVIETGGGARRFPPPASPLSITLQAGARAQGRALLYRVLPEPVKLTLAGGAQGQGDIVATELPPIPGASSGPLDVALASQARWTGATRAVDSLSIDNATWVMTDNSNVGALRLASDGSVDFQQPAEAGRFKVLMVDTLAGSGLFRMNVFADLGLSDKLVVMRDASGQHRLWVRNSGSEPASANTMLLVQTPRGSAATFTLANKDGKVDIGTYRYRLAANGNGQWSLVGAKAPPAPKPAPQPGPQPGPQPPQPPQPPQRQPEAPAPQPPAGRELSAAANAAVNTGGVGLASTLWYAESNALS


How the values were obtained:
[1] = target: T1, Biotinylated Prn-E (pertactin residues …); test: SPR; Biacore 3000, 25 °C; ~100 RU biotinylated Prn-E on a streptavidin chip; Mtd proteins injected in 150 mM NaCl, 50 mM Tris pH 8.0, 0.005% Tween 20 at 30 μl/min; single-site model, global fit, six concentrations, duplicate; details: both partners purified
[2] = target: T2, His-tagged ectodomain of B. …; test: crystal structure; Mtd-P1·Prn-E complex formed with ~1.6-fold molar excess of Mtd-P1 trimers over His-tagged Prn-E, isolated by Ni2+-chelation and Superdex 200; crystals at 25 °C in 2 M NaCl, 100 mM Tris pH 8.5, 200 mM Li2SO4; 3.16 Å; details: both partners purified
[3] = target: T1, Biotinylated Prn-E (pertactin residues …); test: SPR; Biacore 3000, 25 °C; ~100 RU biotinylated Prn-E on a streptavidin chip; whole phage injected (BPP-1 ~1.2-3.7 × 10^-15 M, BPP-6 ~1-2 × 10^-16 M, BIP-1 8.3 × 10^-16 to 8.3 × 10^-15 M, BMP-1 e.g. 3.68 × 10^-15 M); multivalent; single-site model, global fit; details: one partner purified

Binder	Kd [1] [nM]	kon [1] [M⁻¹ s⁻¹]	stoichiometry N [2]	Kd [3] [nM]
Bordetella bacteriophage major tropism determinant variant Mtd-P1 (natural protein, Major tropism determinant (Mtd), variant P1, expressed by Bordetella bacteriophage BPP-1; Mtd has 381 residues in total; trimer of 120 kDa) MSTAVQFRGGTTAQHATFTGAAREITVDTDKNTVVVHDGATAGGFPLARHDLVKTAFIKADKSAVAFTRTGNATASIKAGTIVEVNGKLVQFTADTAITMPALTAGTDYAIYVCDDGTVRADSNFSAPTGYTSTTARKVGGFHYAPGSNAAAQAGGNTTAQINEYSLWDIKFRPAALDPRGMTLVAGAFWADIYLLGVNHLTDGTSKYNVTIADGSASPKKSTKFGGDGSAAYSDGAWYNFAEVMTHHGKRLPNYNEFQALAFGTTEATSSGGTDVPTTGVNGTGATSAWNIFTSKWGVVQASGCLWTWGNEFGGVNGASEYTANTGGRGSVYAQPAAALFGGAWNGTSLSGSRAALWYSGPSFSFAFFGARGVCDHLILE	3470 ± 130	~10000	3 Mtd-P1 protomers per Prn-E	
BPP-1 phage displaying Mtd-P1 (other, Major tropism determinant (Mtd), variant P1, at the ends of the tail fibers of whole BPP-1 phage; 381 residues; Whole phage particle; The other phage proteins are not written; also called BPP-1(Δbrt); source: phage harvested from B. bronchiseptica RB50 cultures, concentrated by centrifugation and ultrafiltration) MSTAVQFRGGTTAQHATFTGAAREITVDTDKNTVVVHDGATAGGFPLARHDLVKTAFIKADKSAVAFTRTGNATASIKAGTIVEVNGKLVQFTADTAITMPALTAGTDYAIYVCDDGTVRADSNFSAPTGYTSTTARKVGGFHYAPGSNAAAQAGGNTTAQINEYSLWDIKFRPAALDPRGMTLVAGAFWADIYLLGVNHLTDGTSKYNVTIADGSASPKKSTKFGGDGSAAYSDGAWYNFAEVMTHHGKRLPNYNEFQALAFGTTEATSSGGTDVPTTGVNGTGATSAWNIFTSKWGVVQASGCLWTWGNEFGGVNGASEYTANTGGRGSVYAQPAAALFGGAWNGTSLSGSRAALWYSGPSFSFAFFGARGVCDHLILE				0.00689 ± 0.00177

Reference: paper PMC2408619, “Selective Ligand Recognition by a Diversity-Generating Retroelement Variable Protein” (PLoS Biology, 2008)
